Measured values from patent EP4613767 (dated 2025).
Residue numbers refer to the chain shown, from its start. One block for each binder: values may come before it.

Tests used:
human CD3 (Jurkat cells) = target: T1, human CD3 (Jurkat cells) (human, UniProt P07766); test: FACS, Jurkat cells
T1 chain: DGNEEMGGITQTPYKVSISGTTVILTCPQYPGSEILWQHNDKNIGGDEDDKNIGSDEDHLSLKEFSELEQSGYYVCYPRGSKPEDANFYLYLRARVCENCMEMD

human CD3 E&D protein = target: T2, human CD3 E&D protein (human, UniProt P07766); test: SPR
T2 chain 1: T1 chain
T2 chain 2: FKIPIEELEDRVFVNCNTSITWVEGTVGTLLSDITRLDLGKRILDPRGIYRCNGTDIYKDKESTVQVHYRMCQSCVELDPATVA

monkey CD3 E&D protein = target: T3, monkey CD3 E&D protein (cynomolgus monkey, UniProt Q95LI5); test: SPR
T3 chain 1: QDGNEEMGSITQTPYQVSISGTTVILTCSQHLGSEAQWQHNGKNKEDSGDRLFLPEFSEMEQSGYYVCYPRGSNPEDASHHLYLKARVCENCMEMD
T3 chain 2: T2 chain 2 with I5V, N15K, I20V, S32T, D33N, I34N, T64A, S74N, V83L

human GPC3 protein = human GPC3 protein (human, UniProt P51654); test: SPR
Chain of human GPC3 protein (P51654 25-554): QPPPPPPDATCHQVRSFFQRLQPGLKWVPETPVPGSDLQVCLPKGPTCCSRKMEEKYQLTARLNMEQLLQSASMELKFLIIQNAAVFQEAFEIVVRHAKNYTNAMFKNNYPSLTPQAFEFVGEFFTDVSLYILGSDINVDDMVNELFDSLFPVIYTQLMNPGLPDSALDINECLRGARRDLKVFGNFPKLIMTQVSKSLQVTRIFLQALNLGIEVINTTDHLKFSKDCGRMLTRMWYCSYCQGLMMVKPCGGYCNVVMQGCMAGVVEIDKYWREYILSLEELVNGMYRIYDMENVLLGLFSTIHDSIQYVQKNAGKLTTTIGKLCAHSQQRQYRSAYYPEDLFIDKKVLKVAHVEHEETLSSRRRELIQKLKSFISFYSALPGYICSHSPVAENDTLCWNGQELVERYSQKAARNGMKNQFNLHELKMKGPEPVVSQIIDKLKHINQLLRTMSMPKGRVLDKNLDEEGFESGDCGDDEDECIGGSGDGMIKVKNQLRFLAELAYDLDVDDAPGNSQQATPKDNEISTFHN

human GPC3 (HepG2 cells) = human GPC3 (HepG2 cells) (human, UniProt P51654); test: FACS, HepG2 cells
Chain of human GPC3 (HepG2 cells) (P51654 25-554): as above

Kd (human CD3 E&D protein): 1.3 nM
B2: G156 (anti-CD3 scFv arm) (antibody, V domains shown)
VH: EVKLVESGGGLVQPGGSLKLSCAASGFTFNTYAMNWVRQAPGKGLEWVARIRSKYNNYATYYADSVKDRFTISRDDAKNTLYLQMNNLRTEDTAVYYCVRHGNFGNSYVSWFAYWGQGTLVTVSS
VL: QAVVTQEPSLTVSPGGTVTLTCRSSTGAVTTSNYANWVQQKPGQAPRGLIGGTNKRAPGTPARFSGSLLGGKAALTLSGAQPEDEAEYYCALWYSNLWVFGGGTKLTVL
modifications: Acro CDD-H52W1

Kd (human GPC3 protein): 5.42 nM
EC50 (human GPC3 (HepG2 cells)): 0.16 nM
B5: G156 (anti-GPC3 VHH arm, two VHH copies, Format 2) (antibody, V domains shown)
VH: QVQLVESGGGVVQPGGSLRLSCAASGRTLTNYVMGWFRQAPGKEREIVAGINWAGSRIGYGDFVKGRFTISRDNSKNTVYLQMNSLRPEDTAVYYCAAKLGKYNYPEYDYRGQGTLVTVSS
VL: B2 VL

Further lines, the binder ahead of its results:

B1: G100 (anti-CD3 scFv arm) (antibody, V domains shown)
VH: B2 VH
VL: B2 VL
EC50 (human CD3 (Jurkat cells)): 23.9 nM

B3: G156 (anti-CD3 scFv arm) (antibody, V domains shown)
VH: B2 VH
VL: B2 VL
EC50 (human CD3 (Jurkat cells)): 27.4 nM

B4: G100 (anti-CD3 scFv arm) (antibody, V domains shown)
VH: B2 VH
VL: B2 VL
modifications: Acro CDD-C52W4
Kd (monkey CD3 E&D protein): 5.66 nM

B6: G100 (anti-CD3 scFv arm) (antibody, V domains shown)
VH: B2 VH
VL: B2 VL
modifications: Acro CDD-H52W1
Kd (human CD3 E&D protein): 3.49 nM

B7: G100 (anti-GPC3 VHH arm, monovalent, Format 1) (antibody, V domains shown)
VH: B5 VH
VL: B2 VL
Kd (human GPC3 protein): 8.36 nM
EC50 (human GPC3 (HepG2 cells)): 0.42 nM

B8: G156 (anti-CD3 scFv arm) (antibody, V domains shown)
VH: B2 VH
VL: B2 VL
modifications: Acro CDD-C52W4
Kd (monkey CD3 E&D protein): 2.79 nM
